Experimental data from patent US20240272170A1.
Numbering of substitutions follows the chain as printed. Each block holds one binder with its values, some of them ahead of it.

Assays:
[1] = target: T1, … after cleavage to N-terminal arginine (RLIFAG); experiment: on-chip dynamic sequencing of …, upper trace
T1 sequence (peptide, C-terminal azidolysine linked to DNA-streptavidin (p-0304)): RLIFAG

[2] = target: T2, synthetic peptide …; experiment: on-chip dynamic sequencing of a mixture of … and … on one chip, signature of …
T2 sequence (peptide): RLAFSALGAADDD

[3] = target: T1, … after cleavage to N-terminal arginine (RLIFAG); experiment: as above
[4] = target: peptide …; experiment: single-molecule dynamic sequencing on chip
[5] = target: peptide RLp…; experiment: single-molecule dynamic sequencing on chip
[6] = target: peptide with N-terminal RLA; experiment: single-molecule on-chip recognition of immobilized peptide, dye-labeled recognizer
[7] = target: T3, synthetic peptide …; experiment: on-chip dynamic sequencing of …, example trace
T3 sequence (peptide): RLMFAYPDDD

[8] = target: T4, synthetic peptide …; experiment: on-chip dynamic sequencing of …, example trace; remark: listed apart in the source
T4 sequence (peptide): RLIFAYPDDD

[9] = target: T2, synthetic peptide …; experiment: on-chip dynamic sequencing of …, example trace; remark: listed apart in the source
[10] = target: T5, synthetic peptide …; experiment: on-chip dynamic sequencing of …, example trace; remark: listed apart in the source
T5 sequence (peptide): RLVFAYPDDD

[11] = target: T6, synthetic peptide …; experiment: on-chip dynamic sequencing of …, example trace; remark: listed apart in the source
T6 sequence (peptide): RLAFAYPDDD

[12] = target: T7, … after cleavage to N-terminal arginine (…); experiment: on-chip dynamic sequencing of …, example trace
T7 sequence (peptide): RLAASFAAQQYPDDD

[13] = target: T1, … after cleavage to N-terminal arginine (RLIFAG); experiment: on-chip dynamic sequencing of …, example trace
[14] = target: T8, … after cleavage to N-terminal arginine (RLIFAGK); experiment: on-chip dynamic sequencing of the ubiquitin digest peptide …, kinetic signature plot
T8 sequence (peptide): RLIFAGK

[15] = target: T9, peptide RLMoFAYPDDD; experiment: on-chip dynamic sequencing of RLMoFAYPDDD, example trace
T9 sequence (peptide, M3 = methionine sulfoxide (Mo)): RLMFAYPDDD

[16] = target: T10, QP304-RAIFAG peptide; experiment: single-molecule on-chip recognition run
T10 sequence (peptide): RAIFAG

[17] = target: peptide …; experiment: on-chip dynamic sequencing of [..] with PS691, PS610, PS961; one example trace, segment at about 107-113 min, BR=0.46
[18] = target: peptide RLp…; experiment: on-chip dynamic sequencing of RLp[..] with PS691, PS610, PS961; one example trace, segment at about 3-18 min, BR=0.43
[19] = target: T11, RA peptide (X…-FITC, X = R); experiment: fluorescence polarization titration, recognizer 0-3000 nM, labeled peptide fixed
T11 sequence (peptide, FITC on the C-terminal Lys): RAKLDEESILKQK

[20] = target: T1, … after cleavage to N-terminal arginine (RLIFAG); experiment: on-chip dynamic sequencing of …, lower trace
[21] = target: RA Peptide (stopped-flow); experiment: stopped-flow rapid kinetics
[22] = target: HL Peptide (stopped-flow); experiment: stopped-flow rapid kinetics
[23] = target: RL Peptide (stopped-flow); experiment: stopped-flow rapid kinetics
[24] = target: T4, synthetic peptide …; experiment: on-chip dynamic sequencing of …, kinetic signature plot
[25] = target: T2, synthetic peptide …; experiment: as above; remark: listed apart in the source
[26] = target: T5, synthetic peptide …; experiment: as above; remark: listed apart in the source
[27] = target: T6, synthetic peptide …; experiment: as above; remark: listed apart in the source
[28] = target: T7, … after cleavage to N-terminal arginine (…); experiment: as above
[29] = target: T1, … after cleavage to N-terminal arginine (RLIFAG); experiment: as above
[30] = target: T11, RA peptide (X…-FITC, X = R); experiment: fluorescence polarization titration, PS691 0-3000 nM
[31] = target: YRELRLLK after cleavage to N-terminal arginine (RELRLLK); experiment: on-chip single-molecule dynamic sequencing with PS610, PS961, PS621 and aminopeptidases; median of the RS mean PD distribution; panel YREL
[32] = target: YRELRLLK after cleavage to N-terminal arginine (RELRLLK); experiment: single-molecule dynamic sequencing on chip
[33] = target: T12, HA peptide (Octet assay of PS621 variants); experiment: Octet (BLI), 30 C
T12 sequence (peptide): HAKLDEESILKQK

[34] = target: EFIAWLV after cleavage to N-terminal leucine (LV); experiment: on-chip dynamic sequencing of EFIAWLV, kinetic signature plot
[35] = target: … after cleavage to N-terminal leucine (…); experiment: on-chip dynamic sequencing of [..] with PS691, PS610, PS961; one example trace, segment at about 113-128 min, BR=0.31
[36] = substrate: I of … / RLp… (IAYPDDD); experiment: on-chip dynamic sequencing of [..] with PS691, PS610, PS961; one example trace, segment at about 247-277 min, BR=0.27
[37] = target: peptide with N-terminal IAA; experiment: single-molecule on-chip recognition of immobilized peptide, dye-labeled recognizer
[38] = target: peptide with N-terminal VAA; experiment: as above
[39] = target: peptide with N-terminal LAA; experiment: as above
[40] = target: EFIAWLVK after cleavage to N-terminal leucine (LVK); experiment: on-chip dynamic sequencing of the GLP-1 digest peptide EFIAWLVK, kinetic signature plot
[41] = substrate: I of … / RLp… (IAYPDDD); experiment: on-chip dynamic sequencing of RLp[..] with PS691, PS610, PS961; one example trace, segment at about 143-155 min, BR=0.25
[42] = target: RLp… after cleavage to N-terminal leucine (Lp…); experiment: on-chip dynamic sequencing of RLp[..] with PS691, PS610, PS961; one example trace, segment at about 20-52 min, BR=0.28
[43] = target: EFIAWLV after cleavage to N-terminal leucine (LV); experiment: on-chip dynamic sequencing of EFIAWLV, example trace
[44] = target: RLp… after cleavage to N-terminal leucine (Lp…); experiment: single-molecule dynamic sequencing on chip
[45] = target: … after cleavage to N-terminal leucine (…); experiment: single-molecule dynamic sequencing on chip
[46] = target: IA peptide (Octet assay of PS557 variants); experiment: Octet (BLI), peptide on sensor, response after 200 s association; second PS829 row
[47] = target: FA peptide (Octet assay of PS557 variants); experiment: as above
[48] = target: MA peptide (Octet assay of PS557 variants); experiment: as above
[49] = target: WA peptide (Octet assay of PS557 variants); experiment: Octet (BLI), peptide on sensor, response after 200 s association
[50] = target: IA peptide (Octet assay of PS557 variants); experiment: as above
[51] = target: FA peptide (Octet assay of PS557 variants); experiment: as above
[52] = target: MA peptide (Octet assay of PS557 variants); experiment: as above
[53] = target: YA peptide (Octet assay of PS557 variants); experiment: as above

B2: PS621 (protein)
chain: MHSKFSHAGRICGAKFKVGEPIYRCKECSFDDTCVLCVNCFNPKDHTGHHVYTTICTEFNNGICDCGDKEAWNHTLFCKAEEG
median RS mean PD [31]: 0.19 s
median interpulse duration (IPD) [32]: 10.1 s

B4: PS961 (designed binder)
chain: MPTAASATESAIEDTPAPARPEVDGRTKPKRQPRYHVVLWDDDDHTYQYVVVMLRSLFGHPPSRGYRMAKEMDTQGRVIVLTTTREHAELKRDQIHAFGRDRLLARSKGSMKASIEAEE
median PD (kinetic signature) [34]: 5.3 s
PW (pulse width of the segment in the example trace) [35]: 2.93
PW (pulse width of the segment in the example trace) [36]: 0.2
median pulse duration (PD) [37]: 0.28 s
median pulse duration (PD) [38]: 0.21 s
median pulse duration (PD) [39]: 1.21 s
median PD (kinetic signature) [40]: 2.99 s
PW (pulse width of the segment in the example trace) [41]: 0.24
PW (pulse width of the segment in the example trace) [42]: 3.57
PD printed above the recognition segment (one trace) [43]: 5.92 s
RS mean pulse duration (PD) [44]: 3.4 s
RS mean pulse duration (PD) [45]: 2.45 s

The next lines start with the values.

PD printed above the recognition segment (one trace) [1]: 0.21 s
median PD (kinetic signature) [2]: 0.21 s
median PD (kinetic signature) [3]: 0.26 s
RS mean pulse duration (PD) [4]: 0.9 s
RS mean pulse duration (PD) [5]: 0.45 s
median pulse duration (PD) [6]: 0.23 s
PD printed above the recognition segment (one trace) [7]: 0.27 s
PD printed above the recognition segment (one trace) [8]: 0.29 s
PD printed above the recognition segment (one trace) [9]: 0.17 s
PD printed above the recognition segment (one trace) [10]: 0.27 s
PD printed above the recognition segment (one trace) [11]: 0.25 s
PD printed above the recognition segment (one trace) [12]: 0.17 s
PD printed above the recognition segment (one trace) [13]: 0.29 s
median PD (kinetic signature) [14]: 0.31 s
PD printed above the recognition segment (one trace) [15]: 0.25 s
pulse duration [16]: 0.16 s
PW (pulse width of the segment in the example trace) [17]: 0.9
PW (pulse width of the segment in the example trace) [18]: 0.54
Kd [19]: 369 nM
PD printed above the recognition segment (one trace) [20]: 0.34 s
koff [21]: 69.4 s⁻¹
kon [21]: 2.6e+07 M⁻¹ s⁻¹
koff [22]: 51.4 s⁻¹
koff [23]: 19.7 s⁻¹
median PD (kinetic signature) [24]: 0.29 s
median PD (kinetic signature) [25]: 0.19 s
median PD (kinetic signature) [26]: 0.27 s
median PD (kinetic signature) [27]: 0.22 s
median PD (kinetic signature) [28]: 0.17 s
median PD (kinetic signature) [29]: 0.24 s
Kd [30]: 369 nM
B1: PS691 (designed binder, from a related filing)
chain: MHSKFSHAGRICGAKFKVGEPIYRCKECSFDDTCVLCVNCFNPKDHTGHHVYTTICTEFNNGICDCGDKEAWNHTLFCKAEEGGSAGSAAGSGEFMHSKFSHAGRICGAKFKVGEPIYRCKECSFDDTCVLCVNCFNPKDHTGHHVYTTICTEFNNGICDCGDKEAWNHTLFCKAEEGGGSHHHHHHHHHHGGGSGGGSGGGSGLNDFFEAQKIEWHEGGGSGGGSGGGSGLNDFFEAQKIEWHE

Octet response [33]: 0.1
B3: PS1116 (designed binder)
chain: B2 chain with G48Y

Octet response [46]: 8.85 nm
Octet response [47]: 1.18 nm
Octet response [48]: 7.86 nm
Octet response [49]: 0.625 nm
Octet response [50]: 7.51 nm
Octet response [51]: 0.797 nm
Octet response [52]: 4.7 nm
Octet response [53]: 0.749 nm
B5: PS829 (designed binder)
chain: B4 chain with R55Q, P62R, S63E, M68L, Q75L, R100Y
